# Experimental data published in the supplement of paper PMC10567573.
# B1: ZNF8 (parent)
# chain: KPYTCSVCGKSFSRTTCLFLHLRT
# Variants of: B1
# Experiment: protein stability index of a GFP-peptide fusion (GPS, HEK-293T) (PSI 1-6); higher = more stable
# Conditions: c terminus: a fixed tail appended
# 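Note: lentivirally expressed fusions sorted by FACS into six bins by GFP to DsRed ratio, PSI derived from sequencing read proportions per bin multiplied by bin number.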
row,Variant,protein stability index
1,KPYTCSVCGKSDSRTTCLFLHLRT,2.22
2,KPYTCSVCGKSESRTTCLFLHLRT,1.77
3,KPYTCSVCGKSGSRTTCLFLHLRT,2.27
4,KPYTCSVCGKSHSRTTCLFLHLRT,2.35
5,KPYTCSVCGKSISRTTCLFLHLRT,3.27
6,KPYTCSVCGKSKSRTTCLFLHLRT,2.88
7,KPYTCSVCGKSLSRTTCLFLHLRT,1.83
8,KPYTCSVCGKSMSRTTCLFLHLRT,2.45
9,KPYTCSVCGKSNSRTTCLFLHLRT,2.4
10,KPYTCSVCGKSPSRTTCLFLHLRT,1.75
11,KPYTCSVCGKSQSRTTCLFLHLRT,1.58
12,KPYTCSVCGKSRSRTTCLFLHLRT,1.62
13,KPYTCSVCGKSSSRTTCLFLHLRT,1.87
14,KPYTCSVCGKSTSRTTCLFLHLRT,1.37
15,KPYTCSVCGKSVSRTTCLFLHLRT,1.73
16,KPYTCSVCGKSWSRTTCLFLHLRT,1.72
17,KPYTCSVCGKSYSRTTCLFLHLRT,2.15
18,KPYTCSVCGKSFARTTCLFLHLRT,2.43
19,KPYTCSVCGKSFCRTTCLFLHLRT,2.71
20,KPYTCSVCGKSFDRTTCLFLHLRT,1.94
21,KPYTCSVCGKSFERTTCLFLHLRT,2.57
22,KPYTCSVCGKSFFRTTCLFLHLRT,1.82
23,KPYTCSVCGKSFGRTTCLFLHLRT,1.62
24,KPYTCSVCGKSFHRTTCLFLHLRT,1.63

row,Variant,protein stability index
1,KPYTCSVCGKSFIRTTCLFLHLRT,1.67
2,KPYTCSVCGKSFKRTTCLFLHLRT,2.06
3,KPYTCSVCGKSFLRTTCLFLHLRT,1.48
4,KPYTCSVCGKSFMRTTCLFLHLRT,1.88
5,KPYTCSVCGKSFNRTTCLFLHLRT,1.76
6,KPYTCSVCGKSFPRTTCLFLHLRT,2.16
7,KPYTCSVCGKSFQRTTCLFLHLRT,2.38
8,KPYTCSVCGKSFRRTTCLFLHLRT,2
9,KPYTCSVCGKSFTRTTCLFLHLRT,1.86
10,KPYTCSVCGKSFVRTTCLFLHLRT,2.15
11,KPYTCSVCGKSFWRTTCLFLHLRT,1.87
12,KPYTCSVCGKSFYRTTCLFLHLRT,1.75
13,KPYTCSVCGKSFSATTCLFLHLRT,2.39
14,KPYTCSVCGKSFSCTTCLFLHLRT,3.41
15,KPYTCSVCGKSFSDTTCLFLHLRT,3.85
16,KPYTCSVCGKSFSETTCLFLHLRT,2.7
17,KPYTCSVCGKSFSFTTCLFLHLRT,1.6
18,KPYTCSVCGKSFSGTTCLFLHLRT,1.89
19,KPYTCSVCGKSFSHTTCLFLHLRT,2.3
20,KPYTCSVCGKSFSITTCLFLHLRT,2.66
21,KPYTCSVCGKSFSKTTCLFLHLRT,2.12
22,KPYTCSVCGKSFSLTTCLFLHLRT,1.65
23,KPYTCSVCGKSFSMTTCLFLHLRT,1.68
24,KPYTCSVCGKSFSNTTCLFLHLRT,3.12

row,Variant,protein stability index
1,KPYTCSVCGKSFSPTTCLFLHLRT,2.45
2,KPYTCSVCGKSFSQTTCLFLHLRT,3.25
3,KPYTCSVCGKSFSSTTCLFLHLRT,3.13
4,KPYTCSVCGKSFSTTTCLFLHLRT,3.19
5,KPYTCSVCGKSFSVTTCLFLHLRT,3.3
6,KPYTCSVCGKSFSWTTCLFLHLRT,1.66
7,KPYTCSVCGKSFSYTTCLFLHLRT,1.93
8,KPYTCSVCGKSFSRATCLFLHLRT,2.45
9,KPYTCSVCGKSFSRCTCLFLHLRT,2.49
10,KPYTCSVCGKSFSRDTCLFLHLRT,2.9
11,KPYTCSVCGKSFSRETCLFLHLRT,2.64
12,KPYTCSVCGKSFSRFTCLFLHLRT,2.9
13,KPYTCSVCGKSFSRGTCLFLHLRT,1.54
14,KPYTCSVCGKSFSRHTCLFLHLRT,1.83
15,KPYTCSVCGKSFSRITCLFLHLRT,2.62
16,KPYTCSVCGKSFSRKTCLFLHLRT,2.39
17,KPYTCSVCGKSFSRLTCLFLHLRT,2.29
18,KPYTCSVCGKSFSRMTCLFLHLRT,2.73
19,KPYTCSVCGKSFSRNTCLFLHLRT,2.02
20,KPYTCSVCGKSFSRPTCLFLHLRT,2.47
21,KPYTCSVCGKSFSRQTCLFLHLRT,2.61
22,KPYTCSVCGKSFSRRTCLFLHLRT,2.58
23,KPYTCSVCGKSFSRSTCLFLHLRT,2.4
24,KPYTCSVCGKSFSRVTCLFLHLRT,2.44

row,Variant,protein stability index
1,KPYTCSVCGKSFSRWTCLFLHLRT,2.1
2,KPYTCSVCGKSFSRYTCLFLHLRT,2.31
3,KPYTCSVCGKSFSRTACLFLHLRT,2.16
4,KPYTCSVCGKSFSRTCCLFLHLRT,1.94
5,KPYTCSVCGKSFSRTDCLFLHLRT,2.27
6,KPYTCSVCGKSFSRTECLFLHLRT,2.25
7,KPYTCSVCGKSFSRTFCLFLHLRT,1.39
8,KPYTCSVCGKSFSRTGCLFLHLRT,2.6
9,KPYTCSVCGKSFSRTHCLFLHLRT,2.36
10,KPYTCSVCGKSFSRTICLFLHLRT,2.44
11,KPYTCSVCGKSFSRTKCLFLHLRT,1.56
12,KPYTCSVCGKSFSRTLCLFLHLRT,1.79
13,KPYTCSVCGKSFSRTMCLFLHLRT,1.98
14,KPYTCSVCGKSFSRTNCLFLHLRT,2.73
15,KPYTCSVCGKSFSRTPCLFLHLRT,2.67
16,KPYTCSVCGKSFSRTQCLFLHLRT,2.73
17,KPYTCSVCGKSFSRTRCLFLHLRT,1.82
18,KPYTCSVCGKSFSRTSCLFLHLRT,2.17
19,KPYTCSVCGKSFSRTVCLFLHLRT,1.68
20,KPYTCSVCGKSFSRTWCLFLHLRT,2.19
21,KPYTCSVCGKSFSRTYCLFLHLRT,2.03
22,KPYTCSVCGKSFSRTTALFLHLRT,2.19
